Reference: the supplement of paper PMC10724198
± gives the standard deviation of the averaged measurements.

Tested on: Saccharomyces cerevisiae
Assay: protein stability index of tFT-peptide fusion (C-terminal peptide) (PSI (0-1 scale)); higher = more stable (slower turnover)
Details: genetic background: wild type; temperature: 30 C
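Further: PSI is a weighted mean of sequencing reads over stability bins, variants kept only with over 10 reads, mCherry proximal and sfGFP distal, peptide attached via GGGS linker.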

Row | Sequence | protein stability index
1 | SAASLWSGFRYG | 0.68 ± 0.0085
2 | GVSVSPVVHFFL | 0.73 ± 0.062
3 | LLFLVHGLCFSS | 0.543 ± 0.028
4 | QNEKSKQCIKQT | 0.6759 ± 0.0019
5 | SWICSTRSYQRE | 0.702 ± 0.044
6 | PPPATNSLPGFE | 0.672 ± 0.0099
7 | GVCTGSFVFYLT | 0.686 ± 0.016
8 | PPQALPHSSKQA | 0.6931 ± 0.0025
9 | VLANAAGLEGFA | 0.681 ± 0.041
10 | SPPPSPSPPPPL | 0.739 ± 0.049
11 | LFPGVHRVEDRA | 0.675 ± 0.034
12 | VSRVWAHFGFCG | 0.707 ± 0.02
13 | RSKPIQAIPNPV | 0.69 ± 0.03
14 | PPLPLPPRPTPP | 0.716 ± 0.071
15 | GTGPPPSPPSLP | 0.683 ± 0.091
16 | PSPPLPPPPSPY | 0.72 ± 0.1
17 | PHPPPPPPPHSP | 0.715 ± 0.08
18 | KTVPRMESRVRA | 0.718 ± 0.053
19 | PPPPPHLPPLTP | 0.711 ± 0.054
20 | SPPPNSLPPPPP | 0.7181 ± 0.0043
21 | QYGVSIRRDSRP | 0.642 ± 0.035
22 | SGCGGKFGCALR | 0.74 ± 0.045
23 | AGQTLARLYTRS | 0.614 ± 0.12
24 | RKEKRKRRGEAN | 0.662 ± 0.061
25 | PGDVSFALARNG | 0.624 ± 0.074

Row | Sequence | protein stability index
26 | VSRITSRFEKKM | 0.592 ± 0.0086
27 | LLFSNRKVGQQF | 0.708 ± 0.011
28 | LHRFTYAEVVWA | 0.536 ± 0.031
29 | LYRPFTAVPPSI | 0.816 ± 0.082
30 | AWFIRSLVAYFL | 0.545 ± 0.017
31 | PSLPCPVLVFSL | 0.462 ± 0.054
32 | TPVLPLSPFPPD | 0.607 ± 0.059
33 | PPAPLPSPRRSL | 0.696 ± 0.065
34 | EMEHANDARRVS | 0.67 ± 0.015
35 | RRFLRRISAFAS | 0.558 ± 0.06
36 | PPRPRPPSSPST | 0.641 ± 0.0099
37 | PLFLPLVPPQIL | 0.682 ± 0.028
38 | CSAVVPASARTP | 0.606 ± 0.019
39 | ISWTRAPLAHPR | 0.879 ± 0.17
40 | PCLTCKARSIWL | 0.672 ± 0.033
41 | GGTGRRRVGRRG | 0.696 ± 0.018
42 | GAMLAGRQGGGL | 0.655 ± 0.0089
43 | THMSPLPTSERW | 0.678 ± 0.085
44 | RPLPASTTLCVL | 0.689 ± 0.11
45 | VRGGGSREERGC | 0.639 ± 0.061
46 | HLGQPRPSCPLF | 0.662 ± 0.088
47 | VGVGGEQISIEY | 0.723 ± 0.054
48 | LCRVFAGFLSVG | 0.689 ± 0.036
49 | PPSPELALSLGH | 0.673 ± 0.038
50 | VIRQPSSKLWIQ | 0.6559 ± 0.0057

Row | Sequence | protein stability index
51 | PSTLLPSLRFPP | 0.654 ± 0.056
52 | GGWAGGRQGCGG | 0.77 ± 0.012
53 | EQLRLQSIECGE | 0.631 ± 0.0073
54 | SLAFGPTAFLPT | 0.6818 ± 0.0038
55 | ASPLPPPSHLSL | 0.741 ± 0.021
56 | FTGAVGPCTCRY | 0.731 ± 0.023
57 | FGVVLEGAGGGG | 0.702 ± 0.07
58 | LPVPPPPVSVAN | 0.554 ± 0.0089
59 | HRKVCARHNWEE | 0.673 ± 0.046
60 | FFGCVLRPCLRG | 0.72 ± 0.0076
61 | PPRPPSPPPPSP | 0.632 ± 0.02
62 | QNSDDFLITDTY | 0.643 ± 0.1
63 | AETYASFHLTDP | 0.712 ± 0.042
64 | AGCRCHSKKAAT | 0.624 ± 0.027
65 | DLSRSPAPPAPL | 0.6706 ± 0.0014
66 | RVCCGVKDSEES | 0.619 ± 0.0062
67 | FRLPMIRVCWSL | 0.569 ± 0.025
68 | RPPIGTLCSINF | 0.614 ± 0.13
69 | QPRVSTSGHSAR | 0.722 ± 0.016
70 | DVLFFSALKAHR | 0.6881 ± 0.003
71 | GQAPRARKTSTD | 0.678 ± 0.014
72 | ERSRKVSWRFIR | 0.6746 ± 0.0033
73 | SGGSKAGGVVRI | 0.63 ± 0.039
74 | GLSSRQHPAPTT | 0.693 ± 0.05
75 | GGGDFDTLWDSR | 0.789 ± 0.03

Row | Sequence | protein stability index
76 | TPRSCTLPTPPP | 0.606 ± 0.051
77 | VAYSKWIGEIRD | 0.71 ± 0.038
78 | CLVRIIRREIKG | 0.575 ± 0.018
79 | RFWFWWVVRDGS | 0.617 ± 0.08
80 | PLPLPSLSAIFL | 0.677 ± 0.016
81 | VRCLGAVEDCLS | 0.657 ± 0.013
82 | THVDLGVLVSPE | 0.6698 ± 0.0017
83 | EPDISTRGPGWT | 0.74 ± 0.026
84 | VQLCQGWIGSES | 0.676 ± 0.0089
85 | NNKNNKNKIYKK | 0.679 ± 0.0091
86 | SYTIPPSTYLPS | 0.704 ± 0.043
87 | GNNPDHAYTSNI | 0.682 ± 0.07
88 | GRRWVGAVVEGV | 0.684 ± 0.043
89 | LEFFPSSRFFGF | 0.773 ± 0.026
90 | SLWWRWQATIRR | 0.714 ± 0.13
91 | CRQCKGTDGDDQ | 0.673 ± 0.04
92 | TPVVSVFFLPHY | 0.673 ± 0.0095
93 | TLYEVHQSENSR | 0.666 ± 0.016
94 | RALSLLSLLLNR | 0.696 ± 0.022
95 | GGRGRRWAGPRC | 0.702 ± 0.039
96 | AAPGWDGTIGCG | 0.753 ± 0.043
97 | GKLWTIIFPLFF | 0.503 ± 0.035
98 | PANGKQNRGKRR | 0.645 ± 0.078
99 | SSRRQSSRPPHS | 0.648 ± 0.025
100 | EGGAGGGVWGLG | 0.819 ± 0.11

Row | Sequence | protein stability index
101 | VLLQDLSYLIGQ | 0.707 ± 0.065
102 | PDCPCVAVCSDI | 0.728 ± 0.032
103 | LAVSSAPLLSSF | 0.723 ± 0.071
104 | LVGHENIVVRRA | 0.72 ± 0.011
105 | DTPIGMPLNVTR | 0.691 ± 0.061
106 | GRRRVGAVVEGV | 0.641 ± 0.01
107 | KKRNKNKKTKEE | 0.68 ± 0.0099
108 | PTLSSPHPPNNY | 0.689 ± 0.021
109 | PPSSYGCGRQMP | 0.645 ± 0.038
110 | DKGWRTRKVKDE | 0.632 ± 0.03
111 | RLSSLSPFLVLS | 0.589 ± 0.0084
112 | HEGHVWGIRGTG | 0.683 ± 0.11
113 | PGLRSQQLIAPI | 0.652 ± 0.069
114 | LFLSAFFFRFFD | 0.629 ± 0.045
115 | ERIIGNRCYVRK | 0.666 ± 0.039
116 | VGCACGYGGCGL | 0.682 ± 0.058
117 | SFPYPCFPPPPF | 0.78 ± 0.056
118 | FGSVFMSFFLCS | 0.522 ± 0.037
119 | LNLRIGDVMRGG | 0.682 ± 0.022
120 | AGGGLGVVLGWW | 0.7054 ± 0.0038
121 | VAAEGCGAALSR | 0.627 ± 0.0099
122 | GGLRWVLGAQAV | 0.707 ± 0.063
123 | VGWVLGCRGLGW | 0.694 ± 0.067
124 | GTDSFQTTRRLI | 0.663 ± 0.022
125 | SIHITGTLSRTA | 0.751 ± 0.065

Row | Sequence | protein stability index
126 | ALAPLISLSFLS | 0.68919 ± 0.00059
127 | CGEGVCVTGWSR | 0.68 ± 0.028
128 | RCSAPWFSPYPP | 0.645 ± 0.073
129 | RGVGGRGIGFPR | 0.6826 ± 0.0058
130 | TIATASWILRRL | 0.624 ± 0.0045
131 | KKLNKNKSKINR | 0.683 ± 0.01
132 | PTLPACFCPPAP | 0.639 ± 0.097
133 | PPPAPTQTALPP | 0.7028 ± 0.0057
134 | RGGNVDSRKMNR | 0.722 ± 0.018
135 | EGSVGRRGHCVR | 0.6959 ± 0.0055
136 | LNIPARVSGAVV | 0.636 ± 0.017
137 | VYYDSVVSLSGA | 0.661 ± 0.079
138 | LQHSLNRKEIET | 0.688 ± 0.014
139 | GEGTQGVSIGPR | 0.711 ± 0.015
140 | TPPTHPPPLPPL | 0.752 ± 0.11
141 | ADVVVGWWVSGW | 0.791 ± 0.1
142 | SPPPPPLTHSPS | 0.627 ± 0.15
143 | PLRYRPPPPPPP | 0.672 ± 0.031
144 | LPPSPPTPPQYT | 0.6977 ± 0.003
145 | WSSSVGIKGAWF | 0.707 ± 0.022
146 | VGGVWAGGGCSF | 0.651 ± 0.12
